This note sets out measurements from patent publication US20110158939A1 (published 2011).

Experiment [1] has as its target T1, wild type human Interleukin-4 (human, UniProt P05112 25-153).
T1 sequence (looked up): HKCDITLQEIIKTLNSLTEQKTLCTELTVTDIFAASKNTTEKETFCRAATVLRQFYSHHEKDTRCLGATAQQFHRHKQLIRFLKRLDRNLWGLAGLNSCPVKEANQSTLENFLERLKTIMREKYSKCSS
Description: cell-based or functional assay.

In experiment [2] the target is T2, IL-4 receptor α chain (UniProt P24394 26-232, limits assumed).
T2 construct: also called IL-4Rα; IL-4-receptor alpha chain
T2 sequence (looked up): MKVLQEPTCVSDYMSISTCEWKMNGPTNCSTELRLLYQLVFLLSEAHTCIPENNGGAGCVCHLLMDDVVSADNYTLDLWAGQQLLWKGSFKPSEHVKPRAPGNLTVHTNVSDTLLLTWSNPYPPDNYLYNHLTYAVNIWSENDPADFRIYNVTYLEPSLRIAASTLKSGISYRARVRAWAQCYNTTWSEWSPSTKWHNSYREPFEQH
Description: Biacore, IL-4 receptor α chain immobilized. On the technique in general: In SPR one partner is held on a chip, and binding of the other changes the refractive index at the surface.

The target of experiment [3] is T2, IL-4 receptor α chain. Description: Biacore, pre- and post-nebulized samples (Aeroneb Pro), no difference between them.
Experiment [4] addresses T2, IL-4 receptor α chain. Briefly: Biacore, IL-4 receptor α chain immobilized (n = 7).

Residue numbers refer to the chain shown, from its start. Names and notes keep the numbering of the source.

B1: IL-4RA (mutant human IL-4 protein with the R121D/Y124D pair of substitutions) (ligand, UniProt P05112 25-153, looked up)
chain: T1 sequence (looked up) with R121D, Y124D
notes: mature; Substitution positions count on the mature 129-residue protein, not on the precursor; also called mhIL-4; IL-4 mutein
Broadly, the koff is the first-order rate constant of dissociation. For orientation: kon means the rate constant with which the complex forms. As a reminder, the Kd is the constant that tells how readily two partners part at equilibrium. As to B1, in experiment [1], the “TF-1/IL-4 proliferation assay, EC50 of inhibition of IL-4-induced cell proliferation” value lay within 0.2 to 0.3 nM; the “TF-1/IL-4 proliferation assay, IC50, post nebulization (Pari LC Plus)” value was 0.483 nM; the “TF-1/IL-4 proliferation assay, IC50, pre nebulization (Pari LC Plus)” value was determined as 0.459 nM. In the experiment with IL-4 receptor α chain [2], the koff was determined as 0.0017 s⁻¹ and the kon came out at 1.6e+07 M⁻¹ s⁻¹. Also, the Kd in the experiment with IL-4 receptor α chain [3] is around 0.1 nM. This molecule showed a Kd with IL-4 receptor α chain [4] of 0.14 nM.
